Experimental data from US20230053214.

Molecular target: human tau (441 amino acids), wild-type

B1: human wild-type p38γ (HA-tagged) (protein)
chain: MSSPPPARSGFYRQEVTKTAWEVRAVYRDLQPVGSGAYGAVCSAVDGRTGAKVAIKKLYRPFQSELFAKRAYRELRLLKHMRHENVIGLLDVFTPDETLDDFTDFYLVMPFMGTDLGKLMKHEKLGEDRIQFLVYQMLKGLRYIHAAGIIHRDLKPGNLAVNEDCELKILDFGLARQADSEMTGYVVTRWYRAPEVILNWMRYTQTVDIWSVGCIMAEMITGKTLFKGSDHLDQLKEIMKVTGTPPAEFVQRLQSDEAKNYMKGLPELEKKDFASILTNASPLAVNLLEKMLVLDAEQRVTAGEALAHPYFESLHDTEDEPQVQKYDDSFDDVDRTLDEWKRVTYKEVLSFKPPRQLGARVSKETPL
  in vitro kinase assay with tau variants mutated to alanine: confirmed site-specific phosphorylation of S199, T205, S396 and S404 by p38γ
  in vitro kinase assay, immunoblotting with phosphorylation site specific antibodies: showed phosphorylation of tau at S199, T205, S396 and S404, but not other sites tested by p38γ
